# Measured values: US20110212106A1, “HIV-1 NE[…] USES THEREOF” (priority 2010, published 2011)
# Like-named read-outs stand apart in the source and are kept apart here.
# B1: HGN194: human mAb binding the V3 crown of gp120; VH SEQ ID NO: 45, VL SEQ ID NO: 46 (antibody, listed as Homo sapiens, V domains shown)
# VH: EVQLVQSGAEVKKPGESLKISCYGSGYNFNDYWIGWVRQMPGKGLEWMGMIYPDDSDTKYSAAFEGQVTLSADKSISTAYLQWTSLRASDTATYYCARLDGDYADFDSWGQGTLVTVSS
# VL: QSVLTQPPSVSAAPGQKVTISCSGTNSNLGDKFVSWYQQLPGTAPRLLIYDNDKRPSGIPDRFSGSKSGASATLAITGLQTGDEADYYCGTWDNSLSALFGGGTKLTVL
# Legend:
# [1] = system: HIV-1 pseudoviruses in HOS-CD4-CCR5 cells
# Description: To measure the neutralization activity of the isolated mAbs, luciferase-encoding virions pseudotyped with the desired HIV-1 Env proteins were used in a single-cycle infectivity assay, as previously described (Gorny M K, et al. (2002) J Virol 76: 9035-9045). Briefly, appropriate dilutions of the virion-containing culture supernatants were pre-incubated at 37° C. for 1 h with mAbs at various concentrations. The virus-mAb mixtures were added to HOS-CD4-CCR5 cells and incubated for 3 days at 37° C. A similar protocol was used for supernatants screening using TZM-bl cells (Li M, et al. (2006) J Virol 80: 11776-11790). The cells were then lysed with Britelite reagent (Perkin-Elmer) and the relative light units in the cell lysates were determined on a luminometer microplate reader (Veritas, Turner Biosystems). The 50% inhibitory dose (IC50) was defined as the sample concentration at which relative luminescence units were reduced 50% compared to virus control wells.
# The neutralizing activity of the mAbs was measured using 20 pseudotyped HIV-1 primary isolate envs characterized by different sensitivity to neutralization (Li M, et al. (2005) J Virol 79: 10108-10125; Li M, et al. (2006) J Virol 80: 11776-11790). The mAbs were tested at a fixed concentration (100 μg/ml) in the luciferase based neutralization assay using HOS-CD4.R5 as target cells.
# [2] = system: HIV-1 isolates; assay: Neutralization of HIV-1 isolates (TZMbl-based or HOS-based assay, not specified); type: cell-based
# Source text: FIG. 5. Epitope mapping of V3-specific mAbs by linear and circular peptide scanning. (A) Eight gp120-specific mAbs were mapped with linear and cyclic peptides to the V3 region. Shown is the HIV-1 isolate used for the mapping, the minimal epitope, the binding breadth expressed as number of recombinant Env proteins out of the 16 tested, and the fraction of isolates neutralized in the HOS and TZMbl-based neutralization assays, respectively. (B) Alignment of the region corresponding to the epitope recognized by mAb HGN194 in 44 HIV-1 isolates. Co-receptor binding residues are bold. Highlighted in grey are the isolates neutralized by HGN194 either in the TZMbl-based or in the HOS-based assays. […]
# To measure the neutralization activity of the isolated mAbs, luciferase-encoding virions pseudotyped with the desired HIV-1 Env proteins were used in a single-cycle infectivity assay, as previously described (Gorny M K, et al. (2002) J Virol 76: 9035-9045). […] The cells were then lysed with Britelite reagent (Perkin-Elmer) and the relative light units in the cell lysates were determined on a luminometer microplate reader (Veritas, Turner Biosystems). […]
# [3] = In vivo administration in macaques
# Source text: Specificity: V3 loop. Pepscan analysis identified the epitope which is very conserved in the tip of V3 of gp120. It includes 4 residues involved in co-receptor (CCR5 or CXCR4) binding. Also HGN194 has accessibility problems (Fab fragment and single chain antibody may work better). Neutralizes most Tier 1 isolates (they are more sensitive isolates since the epitope is more accessible).
# [4] = system: gp120 binding to sCD4; details: inhibition of sCD4 binding
# Description: Shown is mean±SD of triplicates.
# The ability of mAbs to inhibit binding of sCD4 to gp120 or gp140 was evaluated by ELISA. Serial dilutions of mAbs were pre-incubated with gp120 (or gp140) and added to plates pre-coated with sCD4. After 1 h plates were washed and incubated with sheep polyclonal antibody D7324 (Aalto Bio-Reagents) followed by washing, incubation with AP-conjugated rabbit anti-sheep IgG antibody (Abcam, Cambridge, UK), extensive washing and detection using p-NPP (Sigma) as substrate.
# [5] = system: gp120
# Description: For competition assays mAbs were purified on Protein G columns (GE Healthcare) and biotinylated using the EZ-Link NHS-PEO solid phase biotinylation kit (Pierce). The competition between unlabeled and biotinylated mAbs for binding to immobilized Env antigens was measured by ELISA. Briefly, unlabelled competitor mAbs were added at different concentrations. After 1 hour biotinylated mAbs were added at a concentration corresponding to the 70-80% of the maximal OD level. After incubation for 1 h, plates were washed and bound biotinylated mAb was detected using AP-labeled streptavidin (Jackson Immunoresearch). The percentage of inhibition was tested in triplicates and calculated as follow: (1−[(ODsample−ODneg ctr)/(ODpos ctr−ODneg ctr)])×100.
# [6] = system: HIV-1 pseudoviruses in TZM-bl cells
molecule,measurement,setting,value
B1,Neutralization HOS (number of isolates neutralized),"[1]; HOS-based assay, isolates neutralized/isolates tested",11/20
same,pseudoviruses neutralized out of the 20 pseudoviruses,[1]; mAb at fixed concentration 100 μg/ml,11
same,pseudoviruses neutralized in the HOS-based assay,[1]; neutralized/tested,11/20
same,IC50,[2]; isolate 93MW965.26,< 0.02 µg/mL
same,neutralization,"[2]; isolates Du422.1, ZM197M.PB7 and Du172.17",not neutralized
same,efficacy in macaques,[3],complete protection
same,Cross-competition with: sCD4,[4],"− (−, <50% inhibition)"
same,Cross-competition with: 2G12,[5]; inhibition of biotinylated mAb 2G12 binding to immobilized gp120,"− (−, <50% inhibition)"
same,Cross-competition with: HGA9,[5]; inhibition of biotinylated mAb HGA9 binding to immobilized gp120,"+ (+,90-100% inhibition)"
same,Cross-competition with: HJ16,[5]; inhibition of biotinylated mAb HJ16 binding to immobilized gp120,"− (−, <50% inhibition)"
same,Cross-competition with: HR10,[5]; inhibition of biotinylated mAb HR10 binding to immobilized gp120,"+ (+,90-100% inhibition)"
same,Cross-competition with: b12,[5]; inhibition of biotinylated mAb b12 binding to immobilized gp120,"− (−, <50% inhibition)"
same,Percentage of HIV-1 isolates neutralized,[6]; All (92),21%
same,Neutralization TZM-bl (number of isolates neutralized),"[6]; TZM-bl based assay, isolates neutralized/isolates tested",19/92
same,Percentage of HIV-1 isolates neutralized,[6]; Tier 1 (10),100%
same,Percentage of HIV-1 isolates neutralized,"[6]; Tier 1 + Tier 2, Clade A (8)",38%
same,Percentage of HIV-1 isolates neutralized,"[6]; Tier 1 + Tier 2, Clade AD (1)",0%
same,Percentage of HIV-1 isolates neutralized,"[6]; Tier 1 + Tier 2, Clade AG (16)",0%
same,Percentage of HIV-1 isolates neutralized,"[6]; Tier 1 + Tier 2, Clade B (29)",24%
same,Percentage of HIV-1 isolates neutralized,"[6]; Tier 1 + Tier 2, Clade BC (11)",0%
same,Percentage of HIV-1 isolates neutralized,"[6]; Tier 1 + Tier 2, Clade C (26)",23%
same,Percentage of HIV-1 isolates neutralized,"[6]; Tier 1 + Tier 2, Clade G (1)",0%
same,Percentage of HIV-1 isolates neutralized,[6]; Tier 2 (82),11%
same,Percentage of HIV-1 isolates neutralized,"[6]; Tier 2, Clade A (5)",20%
same,Percentage of HIV-1 isolates neutralized,"[6]; Tier 2, Clade AD (1)",0%
same,Percentage of HIV-1 isolates neutralized,"[6]; Tier 2, Clade AG (16)",0%
same,Percentage of HIV-1 isolates neutralized,"[6]; Tier 2, Clade B (24)",8%
same,Percentage of HIV-1 isolates neutralized,"[6]; Tier 2, Clade BC (11)",0%
same,Percentage of HIV-1 isolates neutralized,"[6]; Tier 2, Clade C (24)",17%
same,Percentage of HIV-1 isolates neutralized,"[6]; Tier 2, Clade G (1)",0%
same,pseudoviruses neutralized in the TZM-bl based assay,[6]; neutralized/tested,19/92
